Test results reported in patent publication US20040202655A1.
pIC50: −log10 of the molar value. “And” between values parts separate entries of the source, which are not always exact repeats. Equal values may be shown once.

Experiments:
[1] = biological target: human IGF-I receptor on cells (NIH-3T3 fibroblasts expressing the human IGF-IR; DU145 cells) (human) (UniProt P08069); experiment: cell-based or functional assay
[2] = biological target: human IGF-I receptor on cells (NIH-3T3 fibroblasts expressing the human IGF-IR; DU145 cells) (human) (UniProt P08069); experiment: competition with 125I-IGF-II, NIH-3T3 cells expressing human IGF-1R, 37 C
[3] = biological target: human IGF-I receptor on cells (NIH-3T3 fibroblasts expressing the human IGF-IR; DU145 cells) (human) (UniProt P08069); experiment: competition with 125I-IGF-I, NIH-3T3 cells expressing human IGF-1R, 37 C
[4] = biological target: human IGF-I receptor on cells (NIH-3T3 fibroblasts expressing the human IGF-IR; DU145 cells) (human) (UniProt P08069); experiment: competition with 125I-IGF-I, NIH-3T3 cells expressing human IGF-1R, 4 C
[5] = biological target: human IGF-I receptor on cells (NIH-3T3 fibroblasts expressing the human IGF-IR; DU145 cells) (human) (UniProt P08069); experiment: competition with 125I-IGF-II, NIH-3T3 cells expressing human IGF-1R, 4 C

“MOPC-21 (#M-7894, Sigma), IgG1 isotype control (antibody)” gave an IC50 (nM), IGF-1 dependent proliferation of NIH-3T3/hIGF-1R cells (BrdU ELISA) [1] of over 70 nM, a pIC50 [2] of under 7.30 and a pIC50 [3] of under 7.30.
In the case of “UPC-10 (#F-0528), IgG2a isotype control (antibody)”, the IC50 (nM), IGF-1 dependent proliferation of NIH-3T3/hIGF-1R cells (BrdU ELISA) [1] was over 70 nM and the pIC50 [2] was under 7.30.
In the case of “mouse anti-IGF-1R monoclonal antibody 24-57 (#MS-643-PABX, NeoMarkers)”, the pIC50 [4] was 8.52 and 8.82 and 8.40, the pIC50 [5] was 9.00 and 9.22 and the pIC50 [2] was 8.40 and 8.19. For the same substance, the pIC50 [3] was 8.77 and 8.72.
Work on “mouse anti-IGF-1R monoclonal antibody alpha IR3 (#GR11SP2, Oncogene Research Products)” yielded an IC50 (nM), IGF-1 dependent proliferation of NIH-3T3/hIGF-1R cells (BrdU ELISA) [1] of over 70 nM, a pIC50 [4] of 8.46 and a pIC50 [2] of under 7.30. For the same substance, the pIC50 [3] was 8.80 and 8.72.
